The nature of this data set: soluble on expression in E. coli; label from the status in PepcDB or PDB records.
Regarding “MGSDKIHHHHHHMTILHSTDFFKAGISTVAIEPRLPQSAFPEHHHDFHEIVIVEQGSGIHVFNGQPYTIGGGSVCFIRDHDRHLYEHTDNLCLTNVLYRAPDAFRFLAGVSQLLPQEQEGNYPSHWRVNQTVLQQVRHIVAQIEAVGSDTDTHAVASREILFMQLLVLLRKSSLAEEATNNDARLNQLLAWLEDHFAQEICWEEVAAQFSLSLRTLHRQLKQQTGLTPQRYLNRVRLMKARHLLRHSDESVTDIAYRCGFGDSNHFSTLFRREFDWSPRDIRQGRDAILQ”, the “soluble on expression in E. coli” value is on record as “not soluble”.
For the sequence “MKLVLAVIQDADAAALMRALSEQHFEATKLASTGGFLREGNTTLMIGVDDQRLDTLRTLIGQTCRSRTRLVPARGLVSESEGGVAQEPVEVPVGGAVIFVLGVEDFVKV”, the “soluble on expression in E. coli” value is “not soluble”.
With “MSLQDVDFHIPFPSRRSPDFERARADHLSWPRALGLIGTDAAAERHSRGGYADLAARFYPSATGADLDLGVDLMSWFFLFDDLFDGPRGEDPQETRKLTDAVAAALDGPLPTSAPPIAHGFADVWRRTCQGMSPAWRARSARHWRNYFSGYVDEAVSRHLNTPYDSAGHYLAMRRQTIGVQPTVDLAERSCHCEVPQRVFDSAVLFAMLQIATDTNLILNDIASLEKEEARGELNNMVFILMREHGWTRGRSIAHMQDGVRTRLEQFLLLEACLPKVYDTFELTAQERESAEKYRMDGVRSVIRGSYDWHRSSGRYAADYAEGHHHHHH”, the “soluble on expression in E. coli” value was “soluble”.
For the sequence “MPDLTKARCPCRGCNKVANNAEEVEELFGLRNMGDGTIRVQSYCRECRGLHCEASNPKCNHHA”, the “soluble on expression in E. coli” value was “not soluble”.
For “MGSDKIHHHHHHMSFEQDSTPRGNPVSCESARETNEFSPGKTCIKLMNYRRLTPSMSLLLVFEAAARHESYTRAADELSLSQSAISRQVQTLEDQLGVSLFRREGRSVKLTEVGRRYFVELSGALGRIRGATLQAMSHQAGAGTLRLATLPTFGSKWLLPHLHDFYAAHPGVTVHLHSRIGGIDFHTDDLDAAITVGSGDWPGLHAHRLYNEFLIAIASPDAAGRRKAGPRAPAWAVGQTLLGVTSNQHAWAEWFSHFGLDHREMRIGPSFELTSHLIQAVRAGMGIGLVPKVLVEDELSRNELVSIGDAITSQRSYYLVYPPENDTLPSLVAFREWLLKSC”, the “soluble on expression in E. coli” value is on record as “not soluble”.
The same measure for “MTIHIDFLDETNEVTAEQIETIERLLAEAAALENVPDGAEVSVTFVDNERIRAMNRDYRGKDAPTDVLSFALEEEGEEEVHIVGADMPPVLGDIVISIPKAKEQAAAYGHSFMRELGFLAVHGFLHLLGYDHGTEEEERVMFAKQEDILARFGLTR”: “not soluble”; for “MKFLTVSDDMNFLRQVNTLVAGKGDMDSVIIGEGDAKGLGSKVLYRAKKGTPFDAVSEGILKIAGNYDYIAIGSTEVGREIAGYLSFKTGFYTATEIFSLEFNGQKAHTKRFFYGGKTVIEEESDARILTVAPGVIEAKDLGTTPEIRDLEIGQSRIKITKFVSKAGGSVRLEDAKVIVSVGRGIGSKENIAKIEPLAKALNGEIAGSRPVCMDYGWLSEDRQVGLSGKKVSPKVYIALGISGQIQHIAGMRNSKTVIAINKDKNAPIFQECDYGIVGDLFTVVPKILEQLKQ”: “not soluble”; for “MGFQLRGTGTQELSIKELDLSARDAYGTTIKMLKQQLESSGVRVHAGAPYKLVLLSEENSQRTLSYTGGGNSAEYEIGTTLRYEILTHDNLHLLDDKLEVQKVFLHDGNNITGSDQESSETRKEMRRDLIQRMLIRLQLLTPEQLAQLQATAEAKAKAEADALEAARKAEAETPQQSPMELPNQLEHHHHHH”: “not soluble”.
For the sequence “MATPFDGSNDATESRLLQLGRERLDPILAQQSDALQTQLSNQGIKLGSAAYDRAMTQQALHANDATDQLILQGHGQAFAEGQAIRNQPINEITALLSGSQVSNPQAAAYTPSTIPTTDNAGIIANNYQQKMDAYNAQMSQASSLAGGLFGLGGKLISLSDDDAKKDKERLADITPEMGLWKFHYKGEPADAPMRLGLMASEVEKVRPDAVSRRPDGYRQVDYGKALSLGALEHHHHHH”, the “soluble on expression in E. coli” value is on record as “not soluble”.

Source of the values: the DeepSol protein solubility set.
